Results from the supplement of paper PMC10567573.

B1: MYBL2 (parent)
chain: VKKSCWTEEEDRIICEAHKVLGNR

Variants of: B1
Assay: protein stability index of a GFP-peptide fusion (GPS, HEK-293T) (PSI 1-6); higher = more stable
Settings: c terminus: a fixed tail appended
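Also: lentivirally expressed fusions sorted by FACS into six bins by GFP to DsRed ratio, PSI derived from sequencing read proportions per bin multiplied by bin number.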

Protein stability index: each site, then its substitutions
K3: W 2.21 | Y 2.76
S4: A 3.31 | C 2.53 | D 3.58 | E 3.82 | F 2.83 | G 3.53 | H 2.77 | I 3.21 | K 3.49 | L 3.33 | M 3.06 | N 3.51 | P 3.49 | Q 3.17 | R 3 | T 2.97 | V 3.41 | W 1.98 | Y 2.27
C5: A 3.47 | D 3.77 | E 4.19 | F 3.22 | G 3.75 | H 3.63 | I 3.24 | K 3.53 | L 2.01 | M 3 | N 3.38 | P 3.69 | Q 4.21 | R 3.88 | S 4.1 | T 3.79 | V 3.31 | W 2.73 | Y 3.47
W6: A 3.92 | C 4.48 | D 4.33 | E 4.7 | F 3.54 | G 3.97 | H 3.07 | I 3.7 | K 4.05 | L 3.85 | M 3.99 | N 4.17 | P 4.4 | Q 4.36 | R 3.87 | S 4.09 | T 3.94 | V 3.5 | Y 3.5
T7: A 2.98 | C 3.05 | D 3.76 | E 2.82 | F 2.2 | G 3.02 | H 2.95 | I 4 | K 3.51 | L 3.11 | M 3.03 | N 3.14 | P 3.65 | Q 2.59 | R 3.59 | S 2.83 | V 3.54 | W 2.32 | Y 2.93
E8: A 3.12 | C 2.61 | D 3.11 | F 2.48 | G 2.44 | H 3.33 | I 1.85 | K 3.17 | L 2.69 | M 3.37 | N 4.1 | P 3.4 | Q 3.5 | R 2.9 | S 3.51 | T 2.45 | V 2.85 | W 2.47 | Y 2.79
E9: A 2.59 | C 2.6 | D 3.34 | F 2.31 | G 2.8 | H 2.69 | I 2.57 | K 3.37 | L 2.98 | M 2.1 | N 3.3 | P 2.82 | Q 3.45 | R 2.58 | S 2.66 | T 3.28 | V 2.45 | W 2.35 | Y 2.16
E10: A 2.38 | C 2.27 | D 3.1 | F 1.99 | G 3.15 | H 3.08 | I 2.39 | K 2.99 | L 2.06 | M 1.99 | N 3.21 | P 2.99 | Q 3.26 | R 2.65 | S 2.96 | T 2.47 | V 2.13 | W 1.78 | Y 2.28
D11: A 2.95 | C 2.53 | E 3.43 | F 1.59 | G 3.01 | H 3.57 | I 1.71 | K 2.74 | L 2.21 | M 2.12 | N 3.72 | P 2.76 | Q 3 | R 2.85 | S 2.8 | T 2.83 | V 3.39 | W 2.42 | Y 2.38
R12: A 3.29 | C 2.17 | D 3.15 | E 3.48 | F 3.1 | G 3.58 | H 3.55 | I 3.38 | K 4.05 | L 2.87 | N 3.7 | P 3.38 | Q 3.62
